# Experiment: soluble on expression in E. coli; label from the status in PepcDB or PDB records
row,Sequence,soluble on expression in E. coli
1,MGSDKIHHHHHHMKKLLRNLFGSGREEEKRSASDAMSGREQIVTNSEKSNLSTDPDHVNRQADTLKFDAIRAMNMGELVFATEALRKAMELRPEFETRYYLTEALLRRHLTEEALAQMNLLLEEVPMHTATLLNRAKLRLEQNDPSRALEDCGTGIESTSELEEQALFLYYGASAMKDMKNLKDALCLLKQAIEKNDAFIPARLLRARILIDLERYEEATQDLDWVAASDPEEEQVPMLRARLFMLEGKQQNAIQAYEELLSLDPFNEEGHCGIATLMIKEGRSAEAETFLREAIEEMPVQRNLILMLVEILENKGQTQEAAEWRAKLPEAEVESEAVNFNDLYKGNLY,not soluble
2,MQRLFVYGSLGPGRPNEHLMQKIGGQWQAASLRGRLLEKGWGAGMGFPGLAIDADGEEIHGHVFVSDRLAEHWPALDEFEGSEYRRVATRVTLADGAQVDAYVYALRD,not soluble
3,REAFVSIQTSTIPKTAYAAVNFVETQGEDESYTDSLSTDNKRDIYADFAVIEIPLFLTNHRDYQVFNEFIKPAIETYKQLGNSSFEKKQLDQHKNDNFYMLGYPLVESSIDALILNQRRQYNNSYTEKYTPQTLTKDQRTIDLSREVPTLIQNKTENSTGSQLLVNQSLSSTSEGIIE,soluble
4,MGSDKIHHHHHHMLDIKYYVLIDAIATHGTVHDAAAAIGITQPAATHRIREMERRLGVALFHREGRRLTLSASGERLLDTAHAVLPQLRNAELEAWQLARRAEPALRLGIGPYDTFSRAIPHLYDQHERDIDLVRLPMADMTTALLANRVDMICMIEVPSQRGIAHQLLFEEPLVAVLPPDHPDAQSDTIPAEVFDRGRHFTYSITPESGHEFEHFFQPAGVYPSHMVQIESVALILELVAAGKGVSILSRWAARDAHQAGHVVMRPLAGDIPRIPWYLAYTQTPHIAAVAEPLADTLRHLYRADE,not soluble
5,MLLTCRFTAATSRLSACTRSFSIDFSHEKPAPHQLEHVTTRLTETVPLMFRRRMDYTFYRKDVVCDDQIFSVEKRGIEQLMSHFGMIGTLGQVFLPHVEMEMLSVAPVIDEGTVRCRWRVKYVSFTRIIMNPRLLRFDYRMQNLSWFDGYSVLTVDGNGEVYKVTLQKMQQDEQKSLLTSTTEKLKEKLAPSAANN,not soluble
6,MILVGNGRLISQDSLNPYMEDGCVVINDNLIEDIGTTEEMKAKYPVHEFIDAGKKIIMPGLINSHMHIYSSFARGMAVPGKPSENFLEILNNLWWRLDKQLTLEDTKYSAYATYIECIKNGVTTVYDHHASPNAIEGSLFTISDVAKDLGIRTCLCYEVSDRDGGNTIQQGINENVNFIKYAQKDDTDMIKGMFGLHAAFTLSDDTLNKCASEMAGLDTGYHVHVAEGLADLQYNVDKYGKRVLERFNDFGVLKEKTIAVHCIYISAEEISFLNKTNTFVVHNPESNMGNAVGCSPAIELLKRGVTVGLGTDGYTSDMFESLKVANIIHKHHLKDPRVGFEESQTMLFDNNRKIAKAYYKNDLGVLKKGAYADVIVVDYIPHTPLTENTIGGHTIFGMSGRSVDTTIINGKVLMKDRKLINIDEESILAKSRELSQNLWNRI,not soluble
7,MSLTSFSRLNTNLLQLKSKHSSDNAQHLYVNGNVGSSTEEITSVEYSKLLQLKLIDESLSFQWCNNYTVLSIYSMKETFARKTIYIHFPKPLLNKWFTAVVYESSETTSNLCFDVILKDGIFINLSLPIDFILSRTRQNEYPENWLKVLNPYDFSVRPPQCLFHVDNTFSVVFLKDGGLLGLKRIPLEILNDFELQPVLFNDSSYFQSFTRMFSKYDNHNSAVVSAELLNDKYLVTLTNDATIKIWDLTTYQLNAHFDLKEKNQQVNYGAAGKYMIICGSLLFVYLPAGNGSFQVIQLENTHSSRISFKPLNVNIPLNLSSYSIWSLIDIQLVKSSIVKQSGLNLVLLWKSNTVTKLQLLSFEDSLYSSYKWIDGNSTYLSDLLDDSDLITNGNMEKALLNLKSHYSQSTYDDAQKILNKNNVMVQINDPHNQDYLNNLEALLKELHKQYQEPSTLTILDDEIIVVNSLHMYHHSTYKLDSQLETIFFNIFERKEPSSQLELFLNILHGFSTTITSETLNKISEKFLDMVNGSINPSLSLKNKITIVFQDCLTNGFQSANLSKLLENLNSIDVVEVLSEFIHCDLKVGAFSVIDLLDTDIFLSVLSMESLKQTLSIMDKFIIDILLVFTIVDINYEVFAEKLSKLITLHFNISLWLQVYQIDKLLAISETFGHVTKYNYGAQLKSYSDITDFTTLMVGFVKNSEGHHHHHH,not soluble
8,MTEKKLLMGNEAIAFGAIEAGVQVVTGYPGTPSTEALETIARHAEKCGVYAEWSSNEKVALETAAGAAYSGAKALVTMKQVGLNVASDPLMSLTYIGVKGALVLLVADDPGPHSSQTEQDTRSFGHFANIPVLDPASPQEAYELTKLAFEISHQFEVPVILRTTTRVSHSSGDVELLNSEPSPVEAFC,not soluble
9,MKEKISEKEYKALIRKIGKEHFDGEKEEYGDGTVGVWTYELRKYKLKPPVKVKYVTQEQFQEYKDSNNQRLIKIETTLAAQGEQIRIQVEQIKELQIEQKAQGETLKLILQTLQKMSDRLDKMEVKMDKMEEKMDKMEGKIDKIENRMDKMEVKMDKMEKRIDKLESKLEHHHHHH,not soluble
10,MVSLRTSNRGIVMIDAVVTWVDGADPAHHAKRLRHQGEAGVHQAATAPTRFAHSGEIRFCVLSLLRFCPFVERIHIVTDDQHPAVLDPILDDPHWRDRIAVVDHRAIYGEHADLLPVFSSRSIETMIHRIPGLAPRFIYLNDDIFVGRPLDESHFFDGDRAVLRGRMQPFPNPLVTRLKRWLKRERPGYKTAQQAAARLTGRTSDYFLTEHQPHPMHRDRLASFYAGDPQALRRQAGHRFRSADQVSPIGLANHLEIEARAVIAPPLDVGYIRPGRPTGTALARTMERLCANGYASFCVQSLDAMSEADRRCVLEGLERHYALEHHHHHH,soluble
11,GVRNLAQGPRGCEHYDRACLLKAPCCDKLYTCRLCHDTNEDHQLDRFKVKEVQCINCEKLQHAQQTCEDCSTLFGEYYCSICHLFDKDKRQYHCESCGICRIGPKEDFFHCLKCNLCLTTNLRGKHKCIE,soluble
12,MGSDKIHHHHHHMLSDITVRYKLNNSIKDSRFETEHLAKYHLSFQVNFELFRICIVDGDSNRCLFLEDYTLADIYTTNDLLEQLDILFEDHILIKAGFWKSITVGFKNTQFSLIPEALFEKDYLKEYLTLNTTLDREPDEEYHFYKQRQTEAVNVFATNQRLTSWFNKTYPLKQVRYVHHTASMIEGIMLQKDKNAAEKSVFIQVEQYFLTIIVKQGKKLIFCNSFTFNTSEDFVYFILFVFDQLELNPEKCPVVVFGEITHDSESFSKLYKYIRHLTFGSKPEFVRFGYQFDEVFDHRYFDLYNMHLCQG,not soluble
13,QPLGGESICSARAPAKYSITFTGKWSQTAFPKQYPLFRPPAQWSSLLGAAHSSDYSMWRKNQYVSNGLRDFAERGEAWALMKEIEAAGEALQSVHEVFSAPAVPSGTGQTSAELEVQRRHSLVSFVVRIVPSPDWFVGVDSLDLCDGDRWREQAALDLYPYDAGTDSGFTFSSPNFATIPQDTVTEITSSSPSHPANSFYYPRLKALPPIARVTLLRLRQSPR,soluble
14,SFTSMLSVNQAVSAERKLIDHLIIYIEHEAQRLEDIKRFFSRVTSLHDGIYNEPSDPIANPIAAFKLVKRLKSEWLNVVHSTEAEENIKVLREDYRRMESSLPKLEDLRGAAHGLMRLQDVYNLHVESLVRGHFQQISDPVDFYKLSVSDMLSGDDCFLVGKVAYDLEDYYHSVLWFEEAVRLFRGTEWSPENEGTLEDALDHLAFSHFKVCH,not soluble
15,TPRGYTTWVNTIQTNGLLNEASQNLFGILSVDCTSEEMNAFLDVVPGQAGQKQILLDAIDKIADDWDNRHPLPNAPLVAPPQGPIPMTARFIRGLGVPRERQMEPAFDQFRQTYRQWIIEAMSEGIKVMIGKPKAQNIRQGAKEPYPEFVDRLLSQIKSEGHPQEISKFLTDTLTIQNANEECRNAMRHLRPEDTLEEKMYACRDIG,soluble
16,QDFAELQGKWYTIVIAADNLEKIEEGGPLRFYFRHIDCYKNCSEMEITFYVITNNQCSKTTVIGYLKGNGTYETQFEGNNIFQPLYITSDKIFFTNKNMDRAGQETNMIVVAGKGNALTPEENEILVQFAHEKKIPVENILNILATDTCPE,soluble
17,MRELRIESVHTNPYTLTLRMNGVTLNDKDDRQLLGWGNLLVNLEWSSIIDQTWTFEAIRIDKLMIQEERFVSGETRFSRLAAESSGPEAGKEKAEKEESAEMPALRIRDFKLENGILRFADNLKDVTAADDAEPKQVSLALQNIGLSVKDFTLQNDASFPLRLNGQLTKGGKLAFDGTFQLLPSPALEGNAEINELAFKQAAPYLQQFMNVQLENGTLTLNGQMSTNAQQPFAFKGSASINTLNIKEASNDETLLGWDSLQTGQFDLNIASKEIETAPIVVKGLSARVVINQDKTTNFGQLVVDTPADTKGDTNKSEETQPFGITIEGVELSDGDVQFADKSLPLPFSTSIHTLSGEVSTLSSDSSEPARVKFEGEVAEYGLAQVNGTVHAWHPTRQTTINVRFRNLQIPEYSPYTVNFAGRKIADGTMDLDLDYTVNEEKLDGQNNLVLHDLKLGEKMESSDAMDLPLDLAIALLQDSDGVIDLNLPVSGDVGNPQFDFGKVIQQAVGDAIKSVVTAPFSFLANLVGADSEEMGKVEFPEGRTHLLPPQRERIAKLREALNKRPALALELAGPFNQAFDAPALKEDKAMKVLQQRLAEEGSEVEEPSLTSESSQDAMEAIFSSHYPDTELEALKDRFTEKPSEASNEEKFDALAYRNHLAEKVIAAQSITNEELKAIANARAETVRDALVNNSESGISADRVRIREPQEVDSVEGERIAMELAVTTDLEHHHHHH,not soluble
18,MSLGAIVEVITIKNYSLKSENYEAEIDIPKIRGLKDKNLEQRLNSSFMEDGKRLYHQFQERMEKIQSSKNKGYKSLSLSYSVKNNSKKFLSIEMTKNEIEASSYVSKVHYTIDKKRQIVLTLPMLFKDDKYIKVISDNIKEQMREQMKKDSTKSYFIDQKKDLPVEDFKTINKYQDFYFNKNEDLVICFDEYEVAPGYMGAVEFVIPYKVIKDEGHHHHHH,soluble
19,MSLSKRAYFGTDGIRGQANKHPMTAEVALRVGLAAGKLFRSQDERRHLVVIGKDTRLSGYMIEPALVAGLTSVGLDVRLFGPLPTPAVAMMTRSMRADLGIMISASHNSFADNGIKLFGPDGYKLSDAQELGIEALMDQGLQEGLAAPRELGRVKRIDDAQARYVEIVKATFPRHLNLSGLRIVIDCANGAAYKVAPTALYELGAEVITLGVSPDGTNINEECGSTHPEAMAKMVREYRADIGIALDGDADRLVICDEKGVVVDGDQIMAIIAAASHKAGTLKGGGVVATVMSNLGLERQLNTMGLSLERTAVGDRYVMQRMREGGFNVGGEQSGHLILSDFSTTGDGLIAALQVLAVMVETDKPMSALGRQFEPVPQLLENVRFVGGKPLEAAAVKEAIADGEAQLNGAGRIVVRASGTEPLIRIMAEGDDPALVKKVVKSIASAVKEGHHHHHH,soluble
20,MGSDKIHHHHHHMIVGIDVGGTNTDVAVLEGNVFQIKSFRTSEVIQNLSDFIEKNFGDAEAVGIGVAVWFVDGKPVKAPNLPAIPKMELDVPFIVDNDANCFAYFAAKTLNFRHLLAVTVGTGIGGGIVADGKIYRGRGAAGEIGHTFVGGRKRCRCGGEGHLEAYFGGWAMENVKELIDTGEIYSTAEFALFCRSLANAVMLLNPEAIALGGRIGGRLDERPLAEKVNRYLPEEIDVVVRVVKDDYAVAKGAALLALDTISQNLP,not soluble
21,MSLCWILMASHAQAEPFKIGLLVWSDQIAGQVAMRAGLEAEAAHLQQQARDKNLPSFTLDIKLAGDGPAGVEKQIQQMQAMVDDRVDLIIVQPTDNAALSSPLQAANQAGIPVVAYDQYISGGHLSAFVTSNNYQAGFLDGEYMAHHFADDHTIQIILVEYPYVSSTIDRVDGFFDALNQYKQPYRILRSYQAVEPVQGRAVGQQILQDFPQPGSVDALFTINDGGGLAIVDELEKAGRHELFVATIDGDPNSVARIRKGSIIKIDSAQFCGPIGAEAMRAAYAILTAGKVHEHWLVPVFPITRQSVAHYPGWSGPIPEHYSNPCLTFLCREGHHHHHH,soluble
